Results as given in article PMC6442606 (Proceedings of the National Academy of Sciences of the …, 2019).

Tests used:
[1] = target: the molecule itself; test: native gel or EMSA
[2] = target: Hilyte Fluor 488-labeled Aβ1-42 (UniProt P05067 672-713, Hilyte Fluor 488 label (position not given)); test: native gel or EMSA
[3] = target: biotinylated Aβ1-42 (UniProt P05067 672-713, biotin (position not given)); test: pull-down
Sequence of biotinylated Aβ1-42 (P05067 672-713): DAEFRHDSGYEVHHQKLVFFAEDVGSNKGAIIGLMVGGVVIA

Sequence of Hilyte Fluor 488-labeled Aβ1-42 (P05067 672-713): as above

Row | binding result [2] | binding result [3] | Binder | stoichiometry N [1]
1 |  |  | transformed α2M (α2M*) (natural protein, human, UniProt P01023 24-1474, looked up, thioester bond reacted (NH4Cl)) SVSGKPQYMVLVPSLLHTETTEKGCVLLSYLNETVTVSASLESVRGNRSLFTDLEAENDVLHCVAFAVPKSSSNEEVMFLTVQVKGPTQEFKKRTTVMVKNEDSLVFVQTDKSIYKPGQTVKFRVVSMDENFHPLNELIPLVYIQDPKGNRIAQWQSFQLEGGLKQFSFPLSSEPFQGSYKVVVQKKSGGRTEHPFTVEEFVLPKFEVQVTVPKIITILEEEMNVSVCGLYTYGKPVPGHVTVSICRKYSDASDCHGEDSQAFCEKFSGQLNSHGCFYQQVKTKVFQLKRKEYEMKLHTEAQIQEEGTVVELTGRQSSEITRTITKLSFVKVDSHFRQGIPFFGQVRLVDGKGVPIPNKVIFIRGNEANYYSNATTDEHGLVQFSINTTNVMGTSLTVRVNYKDRSPCYGYQWVSEEHEEAHHTAYLVFSPSKSFVHLEPMSHELPCGHTQTVQAHYILNGGTLLGLKKLSFYYLIMAKGGIVRTGTHGLLVKQEDMKGHFSISIPVKSDIAPVARLLIYAVLPTGDVIGDSAKYDVENCLANKVDLSFSPSQSLPASHAHLRVTAAPQSVCALRAVDQSVLLMKPDAELSASSVYNLLPEKDLTGFPGPLNDQDNEDCINRHNVYINGITYTPVSSTNEKDMYSFLEDMGLKAFTNSKIRKPKMCPQLQQYEMHGPEGLRVGFYESDVMGRGHARLVHVEEPHTETVRKYFPETWIWDLVVVNSAGVAEVGVTVPDTITEWKAGAFCLSEDAGLGISSTASLRAFQPFFVELTMPYSVIRGEAFTLKATVLNYLPKCIRVSVQLEASPAFLAVPVEKEQAPHCICANGRQTVSWAVTPKSLGNVNFTVSAEALESQELCGTEVPSVPEHGRKDTVIKPLLVEPEGLEKETTFNSLLCPSGGEVSEELSLKLPPNVVEESARASVSVLGDILGSAMQNTQNLLQMPYGCGEQNMVLFAPNIYVLDYLNETQQLTPEIKSKAIGYLNTGYQRQLNYKHYDGSYSTFGERYGRNQGNTWLTAFVLKTFAQARAYIFIDEAHITQALIWLSQRQKDNGCFRSSGSLLNNAIKGGVEDEVTLSAYITIALLEIPLTVTHPVVRNALFCLESAWKTAQEGDHGSHVYTKALLAYAFALAGNQDKRKEVLKSLNEEAVKKDNSVHWERPQKPKAPVGHFYEPQAPSAEVEMTSYVLLAYLTAQPAPTSEDLTSATNIVKWITKQQNAQGGFSSTQDTVVALHALSKYGAATFTRTGKAAQVTIQSSGTFSSKFQVDNNNRLLLQQVSLPELPGEYSMKVTGEGCVYLQTSLKYNILPEKEEFPFALGVQTLPQTCDEPKAHTSFQISLSVSYTGSRSASNMAIVDVKMVSGFIPLKPTVKMLERSNHVSRTEVSSNHVLIYLDKVSNQTLSLFFTVLQDVPVRDLKPAIVKVYDYYETDEFAIAEYNAPCSKDLGNA | 4
2 |  |  | hypochlorite-modified α2M (natural protein, human, UniProt P01023 24-1474, looked up, hypochlorite (NaOCl)-modified; residues not stated) SVSGKPQYMVLVPSLLHTETTEKGCVLLSYLNETVTVSASLESVRGNRSLFTDLEAENDVLHCVAFAVPKSSSNEEVMFLTVQVKGPTQEFKKRTTVMVKNEDSLVFVQTDKSIYKPGQTVKFRVVSMDENFHPLNELIPLVYIQDPKGNRIAQWQSFQLEGGLKQFSFPLSSEPFQGSYKVVVQKKSGGRTEHPFTVEEFVLPKFEVQVTVPKIITILEEEMNVSVCGLYTYGKPVPGHVTVSICRKYSDASDCHGEDSQAFCEKFSGQLNSHGCFYQQVKTKVFQLKRKEYEMKLHTEAQIQEEGTVVELTGRQSSEITRTITKLSFVKVDSHFRQGIPFFGQVRLVDGKGVPIPNKVIFIRGNEANYYSNATTDEHGLVQFSINTTNVMGTSLTVRVNYKDRSPCYGYQWVSEEHEEAHHTAYLVFSPSKSFVHLEPMSHELPCGHTQTVQAHYILNGGTLLGLKKLSFYYLIMAKGGIVRTGTHGLLVKQEDMKGHFSISIPVKSDIAPVARLLIYAVLPTGDVIGDSAKYDVENCLANKVDLSFSPSQSLPASHAHLRVTAAPQSVCALRAVDQSVLLMKPDAELSASSVYNLLPEKDLTGFPGPLNDQDNEDCINRHNVYINGITYTPVSSTNEKDMYSFLEDMGLKAFTNSKIRKPKMCPQLQQYEMHGPEGLRVGFYESDVMGRGHARLVHVEEPHTETVRKYFPETWIWDLVVVNSAGVAEVGVTVPDTITEWKAGAFCLSEDAGLGISSTASLRAFQPFFVELTMPYSVIRGEAFTLKATVLNYLPKCIRVSVQLEASPAFLAVPVEKEQAPHCICANGRQTVSWAVTPKSLGNVNFTVSAEALESQELCGTEVPSVPEHGRKDTVIKPLLVEPEGLEKETTFNSLLCPSGGEVSEELSLKLPPNVVEESARASVSVLGDILGSAMQNTQNLLQMPYGCGEQNMVLFAPNIYVLDYLNETQQLTPEIKSKAIGYLNTGYQRQLNYKHYDGSYSTFGERYGRNQGNTWLTAFVLKTFAQARAYIFIDEAHITQALIWLSQRQKDNGCFRSSGSLLNNAIKGGVEDEVTLSAYITIALLEIPLTVTHPVVRNALFCLESAWKTAQEGDHGSHVYTKALLAYAFALAGNQDKRKEVLKSLNEEAVKKDNSVHWERPQKPKAPVGHFYEPQAPSAEVEMTSYVLLAYLTAQPAPTSEDLTSATNIVKWITKQQNAQGGFSSTQDTVVALHALSKYGAATFTRTGKAAQVTIQSSGTFSSKFQVDNNNRLLLQQVSLPELPGEYSMKVTGEGCVYLQTSLKYNILPEKEEFPFALGVQTLPQTCDEPKAHTSFQISLSVSYTGSRSASNMAIVDVKMVSGFIPLKPTVKMLERSNHVSRTEVSSNHVLIYLDKVSNQTLSLFFTVLQDVPVRDLKPAIVKVYDYYETDEFAIAEYNAPCSKDLGNA | 2
3 | binds | binds | pregnancy zone protein (PZP) (natural protein, human, UniProt P20742 26-1482, looked up) TEPQYMVLVPSLLHTEAPKKGCVLLSHLNETVTVSASLESGRENRSLFTDLVAEKDLFHCVSFTLPRISASSEVAFLSIQIKGPTQDFRKRNTVLVLNTQSLVFVQTDKPMYKPGQTVRFRVVSVDENFRPRNELIPLIYLENPRRNRIAQWQSLKLEAGINQLSFPLSSEPIQGSYRVVVQTESGGRIQHPFTVEEFVLPKFEVKVQVPKIISIMDEKVNITVCGEYTYGKPVPGLATVSLCRKLSRVLNCDKQEVCEEFSQQLNSNGCITQQVHTKMLQITNTGFEMKLRVEARIREEGTDLEVTANRISEITNIVSKLKFVKVDSHFRQGIPFFAQVLLVDGKGVPIPNKLFFISVNDANYYSNATTNEQGLAQFSINTTSISVNKLFVRVFTVHPNLCFHYSWVAEDHQGAQHTANRVFSLSGSYIHLEPVAGTLPCGHTETITAHYTLNRQAMGELSELSFHYLIMAKGVIVRSGTHTLPVESGDMKGSFALSFPVESDVAPIARMFIFAILPDGEVVGDSEKFEIENCLANKVDLSFSPAQSPPASHAHLQVAAAPQSLCALRAVDQSVLLMKPEAELSVSSVYNLLTVKDLTNFPDNVDQQEEEQGHCPRPFFIHNGAIYVPLSSNEADIYSFLKGMGLKVFTNSKIRKPKSCSVIPSVSAGAVGQGYYGAGLGVVERPYVPQLGTYNVIPLNNEQSSGPVPETVRSYFPETWIWELVAVNSSGVAEVGVTVPDTITEWKAGAFCLSEDAGLGISSTASLRAFQPFFVELTMPYSVIRGEVFTLKATVLNYLPKCIRVSVQLKASPAFLASQNTKGEESYCICGNERQTLSWTVTPKTLGNVNFSVSAEAMQSLELCGNEVVEVPEIKRKDTVIKTLLVEAEGIEQEKTFSSMTCASGANVSEQLSLKLPSNVVKESARASFSVLGDILGSAMQNIQNLLQMPYGCGEQNMVLFAPNIYVLNYLNETQQLTQEIKAKAVGYLITGYQRQLNYKHQDGSYSTFGERYGRNQGNTWLTAFVLKTFAQARSYIFIDEAHITQSLTWLSQMQKDNGCFRSSGSLLNNAIKGGVEDEATLSAYVTIALLEIPLPVTNPIVRNALFCLESAWNVAKEGTHGSHVYTKALLAYAFSLLGKQNQNREILNSLDKEAVKEDNLVHWERPQRPKAPVGHLYQTQAPSAEVEMTSYVLLAYLTAQPAPTSGDLTSATNIVKWIMKQQNAQGGFSSTQDTVVALHALSRYGAATFTRTEKTAQVTVQDSQTFSTNFQVDNNNLLLLQQISLPELPGEYVITVTGERCVYLQTSMKYNILPEKEDSPFALKVQTVPQTCDGHKAHTSFQISLTISYTGNRPASNMVIVDVKMVSGFIPLKPTVKMLERSSSVSRTEVSNNHVLIYVEQVTNQTLSFSFMVLQDIPVGDLKPAIVKVYDYYETDESVVAEYIAPCSTDTEHGNV | 2
